Data set [1] addresses T1, Flag-mut-RNase HEC (catalytically dead RNase HI) (E. coli, UniProt P0A7Y4 1-155, D10R;E48R).
T1 sequence: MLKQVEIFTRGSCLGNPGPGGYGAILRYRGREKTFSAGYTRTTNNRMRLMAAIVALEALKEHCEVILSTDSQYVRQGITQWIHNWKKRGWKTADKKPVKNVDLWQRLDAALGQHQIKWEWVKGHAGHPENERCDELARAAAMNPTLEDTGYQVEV
Description: EMSA. A general note: A gel shift assay detects complexes by their altered migration in electrophoresis.

Data set [2] deals with T1, Flag-mut-RNase HEC (catalytically dead …). Description: competition.

B1: Dig-RD hybrid (25 bp RNA/DNA) (DNA:RNA)
DNA: GATTCATACCTGTCGTGCCAGCTGC
RNA: GCAGCUGGCACGACAGGUAUGAAUC
As for B1, the binding result in data set [1] is recorded as “binds”.

B2: unlabeled RD hybrid (25 bp RNA/DNA) (DNA:RNA)
DNA: GATTCATACCTGTCGTGCCAGCTGC
RNA: GCAGCUGGCACGACAGGUAUGAAUC
Take B2: the binding result in data set [2] is reported as “binds”.

(Values after paper doi:10.1101/2022.04.08.487625.)
